Measurements from US20250019439A1 (Adimab, published 2025).

Columns and labels:
[1] = molecular target: T1, ADI-26921 IgG; experiment: BLI; tip anti-CD3 IgG, solution ADI-34134 IgG
T1 construct: anti-CD3 IgG
Method: (§1) ForteBio affinity measurements were performed generally as previously described (Estep et al., MAbs. 2013 5(2):270-8). Briefly, ForteBio affinity measurements were performed by loading antibody IgG or Fabs on-line onto AHC sensors. Sensors were equilibrated off-line in assay buffer for 30 minutes and then monitored on-line for 60 seconds for baseline establishment. For avid binding measurement, sensors with loaded antibodies were exposed to IgG or Fab solutions for 3 minutes, afterwards they were transferred to assay buffer for 3 minutes for off-rate measurement. Kinetics data were fit using a 1:1 binding model in the data analysis software provided by ForteBio to obtain equilibrium dissociation constant (KD=koff/kₒₙ) values. In each column, tip-immobilized antibodies are listed first and solution antibodies second.
(§2) CTL-19613 is an IgG1 antibody prepared with anti-CD3 variable domains corresponding with those of clone 12C described in United States Publication Number US 2010/0183615 (e.g., see paragraphs 469-479 and FIG. 25 thereof), which also make up the CD3 binding domain of the bispecific antibody pasotuxizumab. […] In each column, tip-immobilized antibodies are listed first and solution antibodies second.

[2] = molecular target: T2, ADI-26913 IgG; experiment: BLI; tip anti-CD3 IgG, solution ADI-34134 IgG
T2 construct: anti-CD3 IgG
T2 sequence (VH, as listed by the source limits assumed, chain 1 of 2): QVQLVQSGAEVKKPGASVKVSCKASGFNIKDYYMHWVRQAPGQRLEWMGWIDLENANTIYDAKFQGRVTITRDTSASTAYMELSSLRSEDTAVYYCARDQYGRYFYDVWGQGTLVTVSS
T2 sequence (VL, as listed by the source limits assumed, chain 2 of 2): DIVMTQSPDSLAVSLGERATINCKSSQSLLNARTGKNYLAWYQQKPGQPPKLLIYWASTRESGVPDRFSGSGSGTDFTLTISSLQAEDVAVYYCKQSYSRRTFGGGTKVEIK
Method: as §1, §2

[3] = molecular target: T3, ADI-22523 IgG; experiment: BLI; tip anti-CD3 IgG, solution ADI-34134 IgG
T3 construct: anti-CD3 IgG
T3 sequence (VH, as listed by the source limits assumed, chain 1 of 2): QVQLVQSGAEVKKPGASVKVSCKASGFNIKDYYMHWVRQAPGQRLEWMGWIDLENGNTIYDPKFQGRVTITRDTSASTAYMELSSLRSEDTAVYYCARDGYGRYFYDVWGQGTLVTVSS
T3 sequence (VL, as listed by the source limits assumed, chain 2 of 2): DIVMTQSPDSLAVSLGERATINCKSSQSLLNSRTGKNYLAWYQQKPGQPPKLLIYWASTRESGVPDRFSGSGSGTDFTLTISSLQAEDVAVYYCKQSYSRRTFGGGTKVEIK
Method: as §1, §2

[4] = molecular target: T4, ADI-26916 IgG; experiment: BLI; tip anti-CD3 IgG, solution ADI-34134 IgG
T4 construct: anti-CD3 IgG
T4 sequence (VH, as listed by the source, chain 1 of 2): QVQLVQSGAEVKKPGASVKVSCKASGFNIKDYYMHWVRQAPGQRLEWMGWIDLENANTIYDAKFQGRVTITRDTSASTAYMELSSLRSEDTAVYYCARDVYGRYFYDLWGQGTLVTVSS
Method: as §1, §2

[5] = molecular target: T5, ADI-26920 IgG; experiment: BLI; tip anti-CD3 IgG, solution ADI-34134 IgG
T5 construct: anti-CD3 IgG
T5 sequence (VH, as listed by the source limits assumed, chain 1 of 2): as the sequence (VH, as listed by the source, chain 1 of 2) above, with A97G, V100A, L108V counted along it
T5 sequence (VL, as listed by the source limits assumed, chain 2 of 2): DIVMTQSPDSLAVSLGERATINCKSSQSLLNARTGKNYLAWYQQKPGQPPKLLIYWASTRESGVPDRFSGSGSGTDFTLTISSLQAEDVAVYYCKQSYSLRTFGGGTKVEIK
Method: as §1, §2

[6] = molecular target: T6, ADI-26928 IgG; experiment: BLI; tip anti-CD3 IgG, solution ADI-34134 IgG
T6 construct: anti-CD3 IgG
T6 sequence (VH, as listed by the source limits assumed, chain 1 of 2): as the sequence (VH, as listed by the source, chain 1 of 2) above, with N55E, A56G, A97G, V100A, R103L, L108V counted along it
Method: as §1, §2

[7] = molecular target: T7, ADI-26906 IgG; experiment: BLI; tip anti-CD3 IgG, solution ADI-34134 IgG
T7 construct: anti-CD3 IgG
T7 sequence (VH, as listed by the source limits assumed, chain 1 of 2): as the sequence (VH, as listed by the source, chain 1 of 2) above, with V100A, L108V counted along it
Method: as §1, §2

[8] = molecular target: T8, ADI-26927 IgG; experiment: BLI; tip anti-CD3 IgG, solution ADI-34134 IgG
T8 construct: anti-CD3 IgG
T8 sequence (VH, as listed by the source limits assumed, chain 1 of 2): as the sequence (VH, as listed by the source, chain 1 of 2) above, with N55E, A56G, V100R, R103A, L108V counted along it
Method: as §1, §2

[9] = molecular target: T4, ADI-26916 IgG; experiment: SPR Carterra avidity, yeast anti-ID, *koff limit
Method in brief: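 Fitted with a 1:1 binding model after double referencing: Carterra LSA kinetics at 25° C in HBSTE, with anti-idiotype analytes binding anti-CD3 antibodies (100 nM) captured via anti-human Fc on HC30M chip. Dissociation followed 300 s.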

[10] = molecular target: T2, ADI-26913 IgG; experiment: BLI; tip ADI-34145 IgG, solution anti-CD3 IgG
Method: as §1
(§3) In each column, tip-immobilized antibodies are listed first and solution antibodies second.

[11] = molecular target: T3, ADI-22523 IgG; experiment: BLI; tip ADI-34145 IgG, solution anti-CD3 IgG
Method: as §1, §3

[12] = molecular target: T9, ADI-26954 IgG; experiment: BLI; tip ADI-34145 IgG, solution anti-CD3 IgG
T9 construct: anti-CD3 IgG
T9 sequence (VH, as listed by the source limits assumed, chain 1 of 2): as the sequence (VH, as listed by the source, chain 1 of 2) above, with V100N, R103G, L108V counted along it
T9 sequence (VL, as listed by the source limits assumed, chain 2 of 2): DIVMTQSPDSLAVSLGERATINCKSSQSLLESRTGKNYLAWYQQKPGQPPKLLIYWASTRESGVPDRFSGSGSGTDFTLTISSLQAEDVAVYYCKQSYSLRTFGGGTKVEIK
Method: as §1, §3

[13] = molecular target: T5, ADI-26920 IgG; experiment: BLI; tip ADI-34145 IgG, solution anti-CD3 IgG
Method: as §1, §3

[14] = molecular target: T7, ADI-26906 IgG; experiment: BLI; tip ADI-34145 IgG, solution anti-CD3 IgG
Method: as §1, §3

[15] = molecular target: T10, CTL-19672 Fab; experiment: BLI; tip ADI-34145 IgG, solution anti-CD3 Fab
T10 construct: anti-CD3 Fab by papain digestion of the IgG1
T10 sequence (VH, as listed by the source limits assumed, chain 1 of 2): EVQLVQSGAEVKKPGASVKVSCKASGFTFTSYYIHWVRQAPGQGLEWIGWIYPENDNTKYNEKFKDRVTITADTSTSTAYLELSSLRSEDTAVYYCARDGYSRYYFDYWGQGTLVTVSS
T10 sequence (VL, as listed by the source limits assumed, chain 2 of 2): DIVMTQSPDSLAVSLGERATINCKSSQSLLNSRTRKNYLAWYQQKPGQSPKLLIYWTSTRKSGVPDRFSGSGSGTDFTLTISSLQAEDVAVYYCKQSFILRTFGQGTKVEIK
Method: as §1, §2

[16] = molecular target: T11, ADI-26920 Fab; experiment: BLI; tip ADI-34145 IgG, solution anti-CD3 Fab
T11 construct: anti-CD3 Fab by papain digestion of the IgG
T11 sequence (VH, as listed by the source limits assumed, chain 1 of 2): as the sequence (VH, as listed by the source, chain 1 of 2) above, with A97G, V100A, L108V counted along it
Method: as §1, §2

[17] = molecular target: T12, CTL-19613 Fab; experiment: BLI; tip ADI-34145 IgG, solution anti-CD3 Fab
T12 construct: anti-CD3 Fab by papain digestion of the IgG1
Method: as §1, §2

[18] = molecular target: T13, ADI-22523 Fab; experiment: BLI; tip ADI-34145 IgG, solution anti-CD3 Fab
T13 construct: anti-CD3 Fab by papain digestion of the IgG
T13 sequence (VH, as listed by the source limits assumed, chain 1 of 2): as the sequence (VH, as listed by the source, chain 1 of 2) above, with A56G, A62P, V100G, L108V counted along it
Method: as §1, §2

[19] = molecular target: T2, ADI-26913 IgG; experiment: BLI; tip anti-CD3 IgG, solution ADI-34145 IgG
Method: as §1, §2

[20] = molecular target: T3, ADI-22523 IgG; experiment: BLI; tip anti-CD3 IgG, solution ADI-34145 IgG
Method: as §1, §2

[21] = molecular target: T4, ADI-26916 IgG; experiment: BLI; tip anti-CD3 IgG, solution ADI-34145 IgG
Method: as §1, §2

[22] = molecular target: T9, ADI-26954 IgG; experiment: BLI; tip anti-CD3 IgG, solution ADI-34145 IgG
Method: as §1, §2

[23] = molecular target: T5, ADI-26920 IgG; experiment: BLI; tip anti-CD3 IgG, solution ADI-34145 IgG
Method: as §1, §2

[24] = molecular target: T7, ADI-26906 IgG; experiment: BLI; tip anti-CD3 IgG, solution ADI-34145 IgG
Method: as §1, §2

[25] = molecular target: CTL-19613 IgG; experiment: BLI; tip anti-CD3 IgG, solution ADI-34145 IgG
Method: as §1, §2

[26] = molecular target: T14, CTL-19672 IgG; experiment: BLI; tip anti-CD3 IgG, solution ADI-34145 IgG
T14 construct: IgG1 with the anti-CD3 variable domains of clone 38E4v1
Method: as §1, §2

T1 sequence (VH, as listed by the source limits assumed, chain 1 of 2): as the sequence (VH, as listed by the source, chain 1 of 2) above, with N55E, A56G, V100A, L108V counted along it

B1: ADI-34134 IgG (antibody, V domains shown)
VH: QVQLVQSGAEVKKPGSSVKVSCKASGGTFSSYAISWVRQAPGQGLEWMGGIIPIFGTANYAQKFQGRVTITADESTSTAYMELSSLRSEDTAVYYCARGAPNYYGSGGYDDGWFDPWGQGTLVTVSS
VL: EIVLTQSPGTLSLSPGERATLSCRASQSVSSDYLAWYQQKPGQAPRLLIYGASSRATGIPDRFSGSGSGTDFTLTISRLEPEDFAVYYCQQFGRVPTFGGGTKVEIK
Kd [1]: 0.57 nM
Kd [2]: 0.77 nM
Kd [3]: 0.37 nM
Kd [4]: 1.04 nM
Kd [5]: 0.46 nM
Kd [6]: 0.85 nM
Kd [7]: 0.43 nM
Kd [8]: 0.45 nM
Kd [9]: 6.3 nM

B2: ADI-34145 IgG (antibody, V domains shown)
VH: EVQLLESGGGLVQPGGSLRLSCAASGFTFSSYAMSWVRQAPGKGLEWVSTISGSGGSTYYADSVKGRFTISRDNSKNTLYLQMNSLRAEDTAVYYCARLGGRRGSGSSYYYYYGMDVWGQGTTVTVSS
VL: not shown
notes: anti-ID IgG
Kd [10]: 8.1 nM
Kd [11]: 2.72 nM
Kd [12]: 7.75 nM
Kd [13]: 14.3 nM
Kd [14]: 8.39 nM
binding result [15]: no binding
Kd [16]: 3.71 nM
binding result [17]: no binding
Kd [18]: 3.16 nM
Kd [19]: 1.03 nM
Kd [20]: 2.6 nM
Kd [21]: 7.75 nM
Kd [22]: 1.82 nM
Kd [23]: 3.5 nM
Kd [24]: 8.39 nM
binding result [25]: no binding
binding result [26]: no binding
